Assay results: paper PMC5667935, “AMPylation targets the rate-limiting step of BiP’s ATPase cycle for its functional inactivation” (eLife, 2017)
Each block holds one molecule with its values, some of them ahead of it.

How the values were obtained:
[1] = target: wildtype Chinese hamster BiP, unmodified (BiP^WT) (Chinese hamster (Cricetulus griseus)) (UniProt G3I8R9)
[2] = target: AMPylated wildtype Chinese hamster BiP (BiP^WT-AMP) (UniProt G3I8R9); assay: BLI; conditions: trace 6; AMPylated BiP WT; association in presence of ATP; signal at end of association step (20 min); parent is trace 4; parent: est. 0.95; read off a plot
[3] = target: wildtype Chinese hamster BiP, unmodified (BiP^WT) (UniProt G3I8R9); assay: BLI; conditions: trace 3; association in presence of ATP; signal at end of association step (20 min); parent is trace 1; parent: est. 4.2; read off a plot
[4] = target: T1, Chinese hamster BiP T229A-V461F double mutant (BiP^T229A-V461F), unmodified (Chinese hamster (Cricetulus griseus), UniProt G3I8R9 19-654, T229A | V461F); assay: BLI; Octet RED96, streptavidin sensors saturated with biotinylated GST-J (no P15); BiP^T229A-V461F at different concentrations in solution, 1 mM ATP in baseline, association and dissociation; HKM with 0.05% Triton X-100, 24°C; KD from steady state binding signals; binding sensitive to increasing KCl; conditions: both partners purified
T1 construct: BiP (Grp78), Chinese hamster (Cricetulus griseus); Construct limits: see note of m1; source: E. coli M15, purified (Ni-NTA)
T1 sequence (G3I8R9 19-654 T229A/V461F): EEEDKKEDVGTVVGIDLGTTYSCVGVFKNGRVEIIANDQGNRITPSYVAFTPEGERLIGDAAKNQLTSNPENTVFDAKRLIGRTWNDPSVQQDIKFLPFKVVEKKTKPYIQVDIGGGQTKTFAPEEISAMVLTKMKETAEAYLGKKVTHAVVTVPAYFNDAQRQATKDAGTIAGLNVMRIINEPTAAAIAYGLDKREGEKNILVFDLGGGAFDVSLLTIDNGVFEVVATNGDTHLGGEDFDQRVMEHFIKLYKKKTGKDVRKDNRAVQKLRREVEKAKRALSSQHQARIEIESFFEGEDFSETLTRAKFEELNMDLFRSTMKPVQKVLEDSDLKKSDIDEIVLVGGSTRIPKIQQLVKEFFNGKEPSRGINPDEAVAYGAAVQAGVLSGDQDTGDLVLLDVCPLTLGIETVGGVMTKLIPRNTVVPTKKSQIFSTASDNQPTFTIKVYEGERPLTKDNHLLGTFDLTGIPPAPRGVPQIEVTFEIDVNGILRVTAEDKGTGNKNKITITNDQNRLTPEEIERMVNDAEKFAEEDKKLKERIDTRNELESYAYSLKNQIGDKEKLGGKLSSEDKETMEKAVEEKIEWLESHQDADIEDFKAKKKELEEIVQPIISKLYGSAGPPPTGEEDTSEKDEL

[5] = target: T2, AMPylated Chinese hamster BiP T229A-V461F double mutant (AMPylated BiP^T229A-V461F) (Chinese hamster (Cricetulus griseus), UniProt G3I8R9 19-654, T229A | V461F, AMP on threonine 518 (T518-AMP)); assay: as above; conditions: both partners purified
T2 construct: BiP (Grp78), Chinese hamster (Cricetulus griseus); Construct limits: see note of m1; source: E. coli M15, purified (Ni-NTA)
T2 sequence (G3I8R9 19-654 T229A/V461F): as above

[6] = target: T3, wildtype Chinese hamster BiP, unmodified (BiP^WT) (Chinese hamster (Cricetulus griseus), UniProt G3I8R9 19-654); assay: BLI; Octet RED96, streptavidin sensors with biotinylated GST-J (to 0.4 nm) then saturated with biotinylated P15; BiP 15 µM in HKM with 0.05% Triton X-100 and 2 mM ATP for association; dissociation in protein-free solution with 2 mM ADP or ATP; 24°C; one-phase decay fit of the dissociation; conditions: both partners purified
T3 construct: BiP (Grp78), Chinese hamster (Cricetulus griseus); also called Grp78; haBiP; source: E. coli M15, purified (Ni-NTA); unmodified control from mock AMPylation reactions without enzyme
T3 sequence (G3I8R9 19-654): as the sequence (G3I8R9 19-654 T229A/V461F) above, with A211T, F443V counted along it

[7] = target: T4, AMPylated wildtype Chinese hamster BiP (BiP^WT-AMP) (Chinese hamster (Cricetulus griseus), UniProt G3I8R9 19-654, AMP on threonine 518 (T518-AMP)); assay: as above; conditions: both partners purified
T4 construct: BiP (Grp78), Chinese hamster (Cricetulus griseus); Same construct as m1, AMPylated at high stoichiometry (intact mass spectrometry); Construct limits: see note of m1; also called BiP-AMP; AMPylated BiP; source: E. coli M15, purified (Ni-NTA)
T4 sequence (G3I8R9 19-654): as the sequence (G3I8R9 19-654 T229A/V461F) above, with A211T, F443V counted along it

[8] = target: T5, Chinese hamster BiP T518E mutant (BiP^T518E) (Chinese hamster (Cricetulus griseus), UniProt G3I8R9 19-654, T518E); assay: as above; conditions: both partners purified
T5 construct: BiP (Grp78), Chinese hamster (Cricetulus griseus); Mimics aspects of AMPylation; Construct limits: see note of m1; source: E. coli M15, purified (Ni-NTA)
T5 sequence (G3I8R9 19-654 T518E): as the sequence (G3I8R9 19-654 T229A/V461F) above, with A211T, F443V, T500E counted along it

Chain of wildtype Chinese hamster BiP, unmodified (BiP^WT) (Chinese hamster (Cricetulus griseus)) (G3I8R9 19-654): as the sequence (G3I8R9 19-654 T229A/V461F) above, with A211T, F443V counted along it

rate of ATP hydrolysis by BiP in a single-turnover ATPase assay with wildtype GST-J (2 µM) compared with non-functional GST-J^QPD [1]: > 4 fold
Molecule: wildtype J-domain of mouse P58/ERdj6 (residues 384-470) fused to GST (GST-J^WT) (from UniProt Q91YW3 384-470) (domain or fragment)

response [2]: 0.1 nm
response [3]: 0.14 nm
Molecule: biotinylated GST-J^WT and biotinylated P15 substrate peptide co-immobilized on a streptavidin BLI sensor (from UniProt Q91YW3) H422Q

Kd [4]: ~14 µM
Kd [5]: ~14 µM
B1: wildtype J-domain of mouse P58/ERdj6 (residues 384-470) fused to GST (GST-J^WT) (domain or fragment, UniProt Q91YW3 384-470, looked up)
chain: QRLLKQSQKRDYYKILGVKRNAKKQEIIKAYRKLALQWHPDNFQNEEEKKKAEKKFIDIAAAKEVLSDPEMRKKFDDGEDPLDAESQ
modifications: biotinylated with Biotin-maleimide for the BLI experiments (a fraction of the purified protein); not biotinylated in pull-down, SEC and ATPase assays
notes: J-domain of P58/ERdj6, mouse, residues 384-470; also called model J-domain

koff [6]: 0.00079 s⁻¹
koff [7]: 0.00329 s⁻¹
koff [8]: 0.00165 s⁻¹
B2: biotinylated GST-J^WT and biotinylated P15 substrate peptide co-immobilized on a streptavidin BLI sensor (other, mouse)
chain: B1 chain
peptide: ALLLSAPRRGAGKK
modifications: biotinylated with Biotin-maleimide | biotinylated on the C-terminal lysine
notes: J-domain of P58/ERdj6, mouse, residues 384-470; P15 model BiP substrate peptide (Misselwitz et al., 1998); Not a complex: two separately biotinylated ligands on one sensor surface (GST-J to ~0.4 nm signal, then saturation with P15); the signal is not divided among them; also called sensors carrying GST-J^WT and P15; GST-J^WT-coupled sensors; source: GST-J^WT: purified GST-fusion protein, …
